Legend:
[1] = target: GLP-1 receptor on Rinm cells; test: cell-based or functional assay
[2] = target: GLP-1 peptide (UniProt P01275)
[3] = target: wt GLP-1 mimetibody construct (GLP-1 MMB), IgG1 scaffold (UniProt P01275)
Chain of wt GLP-1 mimetibody construct (GLP-1 MMB), IgG1 scaffold (P01275 whole entry, looked up): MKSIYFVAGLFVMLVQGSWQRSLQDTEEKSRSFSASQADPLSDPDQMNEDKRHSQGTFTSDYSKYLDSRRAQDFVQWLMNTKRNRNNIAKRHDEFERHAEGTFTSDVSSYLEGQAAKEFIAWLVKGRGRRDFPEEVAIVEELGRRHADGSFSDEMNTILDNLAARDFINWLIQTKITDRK

Chain of GLP-1 peptide (P01275 98-127): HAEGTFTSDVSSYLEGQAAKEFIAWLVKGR

GLP-1 peptide (from UniProt P01275 98-127)
concentration dependent cAMP activity, EC50 (Rinm cells) [1]: 0.4 nM

wt GLP-1 mimetibody construct (GLP-1 MMB), IgG1 scaffold (from UniProt P01275 98-128) (Fc fusion)
concentration dependent cAMP activity, EC50 (Rinm cells) [1]: 11 nM

DPP-IV (R&D Systems)
DPP-IV cleavage assay (intact peptide by GLP-1 Active ELISA) [2]: The GLP-1 MMB was significantly more resistant to cleavage by DPP-IV, relative to the GLP-1 peptide | DPP-IV cleavage assay (intact MMB by GLP-1 Active ELISA) [3]: The GLP-1 MMB was significantly more resistant to cleavage by DPP-IV, relative to the GLP-1 peptide

Reference: patent US20090098108A1
